B1: YFP- and HA-epitope tagged dopamine transporter (YFP-HA-DAT), wild type [human] / itself (parent)
chain: MSKSKCSVGLMSSVVAPAKEPNAVGPKEVELILVKEQNGVQLTSSTLTNPRQSPVEAQDRETWGKKIDFLLSVIGFAVDLANVWRFPYLCYKNGGGAFLVPYLLFMVIAGMPLFYMELALGQFNREGAAGVWKICPILKGVGFTVILISLYVGFFYNVIIAWALHYLFSSFTTELPWIHCNNSWNSPNCSDAHPGDSSGDSSGLNDTFGTTPAAEYFERGVLHLHQSHGIDDLGPPRWQLTACLVLVIVLLYFSLWKGVKTSGKVVWITATMPYVVLTALLLRGVTLPGAIDGIRAYLSVDFYRLCEASVWIDAATQVCFSLGVGFGVLIAFSSYNKFTNNCYRDAIVTTSINSLTSFSSGFVVFSFLGYMAQKHSVPIGDVAKDGPGLIFIIYPEAIATLPLSSAWAVVFFIMLLTLGIDSAMGGMESVITGLIDEFQLLHRHRELFTLFIVLATFLLSLFCVTNGGIYVFTLLDHFAAGTSILFGVLIEAIGVAWFYGVGQFSDDIQQMTGQRPSLYWRLCWKLVSPCFLLFVVVVSIVTFRPPHYGAYIFPDWANALGWVIATSSMAMVPIYAAYKFCSLPGSFREKLAYAIAPEKDRELVDRGEVRQFTLRHWLKV

In one assay the parent is B1. Description: SDS-PAGE and immunoblotting with the GFP antibody, quantification of trimer band. As to conditions: AIM-100 20 μM, 2 h at 37 °C, PAE cells, read off a plot.
With chain 1 I248F V249T L458F L459G, the screen value (fraction of total) was 0.3.

The same assay, now with this note: AL3 20 μM, 2 h at 37 °C, PAE cells, read off a plot.
As to chain 1 I248F V249T L458F L459G, the screen value (fraction of total) is 0.15.

The same assay, now with this note: AL4 20 μM, 2 h at 37 °C, PAE cells, read off a plot.
As for chain 1 I248F V249T L458F L459G, the screen value (fraction of total) was determined as 0.17.

The same assay, now with this note: AL8 20 μM, 2 h at 37 °C, PAE cells, read off a plot.
chain 1 I248F V249T L458F L459G: the screen value (fraction of total) is 0.22.

The assay is the same for the next values; noted with them: vehicle, 2 h at 37 °C, PAE cells, read off a plot.
Take chain 1 I248F V249T L458F L459G: the screen value (fraction of total) is 0.17.

The values above are taken from PMC8010718, “Direct coupling of oligomerization and oligomerization-driven endocytosis of the dopamine transporter to its conformational mechanics and activity” (The Journal of Biological Chemistry, 2021).
